Test results from paper PMC10566545.

Molecular target: RNAP containing His-RpoA (wild type) (Pseudomonas aeruginosa PAO1) (UniProt O52760+Q51561+Q9HWC9+Q9HTM1)
Assay: EMSA
Settings: 10 mM Tris-HCl, 50 mM KCl, 1 mM DTT, 1% glycerin, 10 mM MgCl2, 1 ug/ul poly(dI-dC), pH 7.5, room temperature, 30 min; 30 ng probe, 0.2 ug protein

RNAP containing His-RpoA (wild type) (Pseudomonas aeruginosa PAO1), sequence (O52760 whole entry, chain 1 of 4): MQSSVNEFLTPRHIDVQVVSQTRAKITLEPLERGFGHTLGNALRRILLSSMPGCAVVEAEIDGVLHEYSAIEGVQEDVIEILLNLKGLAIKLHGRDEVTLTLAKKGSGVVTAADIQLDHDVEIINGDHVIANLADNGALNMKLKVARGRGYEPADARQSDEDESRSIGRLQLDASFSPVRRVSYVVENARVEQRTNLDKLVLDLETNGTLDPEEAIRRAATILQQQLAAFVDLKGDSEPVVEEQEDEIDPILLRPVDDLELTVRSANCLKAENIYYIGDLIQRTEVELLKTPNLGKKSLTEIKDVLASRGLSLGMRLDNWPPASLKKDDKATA
RNAP containing His-RpoA (wild type) (Pseudomonas aeruginosa PAO1), sequence (Q51561 whole entry, chain 2 of 4): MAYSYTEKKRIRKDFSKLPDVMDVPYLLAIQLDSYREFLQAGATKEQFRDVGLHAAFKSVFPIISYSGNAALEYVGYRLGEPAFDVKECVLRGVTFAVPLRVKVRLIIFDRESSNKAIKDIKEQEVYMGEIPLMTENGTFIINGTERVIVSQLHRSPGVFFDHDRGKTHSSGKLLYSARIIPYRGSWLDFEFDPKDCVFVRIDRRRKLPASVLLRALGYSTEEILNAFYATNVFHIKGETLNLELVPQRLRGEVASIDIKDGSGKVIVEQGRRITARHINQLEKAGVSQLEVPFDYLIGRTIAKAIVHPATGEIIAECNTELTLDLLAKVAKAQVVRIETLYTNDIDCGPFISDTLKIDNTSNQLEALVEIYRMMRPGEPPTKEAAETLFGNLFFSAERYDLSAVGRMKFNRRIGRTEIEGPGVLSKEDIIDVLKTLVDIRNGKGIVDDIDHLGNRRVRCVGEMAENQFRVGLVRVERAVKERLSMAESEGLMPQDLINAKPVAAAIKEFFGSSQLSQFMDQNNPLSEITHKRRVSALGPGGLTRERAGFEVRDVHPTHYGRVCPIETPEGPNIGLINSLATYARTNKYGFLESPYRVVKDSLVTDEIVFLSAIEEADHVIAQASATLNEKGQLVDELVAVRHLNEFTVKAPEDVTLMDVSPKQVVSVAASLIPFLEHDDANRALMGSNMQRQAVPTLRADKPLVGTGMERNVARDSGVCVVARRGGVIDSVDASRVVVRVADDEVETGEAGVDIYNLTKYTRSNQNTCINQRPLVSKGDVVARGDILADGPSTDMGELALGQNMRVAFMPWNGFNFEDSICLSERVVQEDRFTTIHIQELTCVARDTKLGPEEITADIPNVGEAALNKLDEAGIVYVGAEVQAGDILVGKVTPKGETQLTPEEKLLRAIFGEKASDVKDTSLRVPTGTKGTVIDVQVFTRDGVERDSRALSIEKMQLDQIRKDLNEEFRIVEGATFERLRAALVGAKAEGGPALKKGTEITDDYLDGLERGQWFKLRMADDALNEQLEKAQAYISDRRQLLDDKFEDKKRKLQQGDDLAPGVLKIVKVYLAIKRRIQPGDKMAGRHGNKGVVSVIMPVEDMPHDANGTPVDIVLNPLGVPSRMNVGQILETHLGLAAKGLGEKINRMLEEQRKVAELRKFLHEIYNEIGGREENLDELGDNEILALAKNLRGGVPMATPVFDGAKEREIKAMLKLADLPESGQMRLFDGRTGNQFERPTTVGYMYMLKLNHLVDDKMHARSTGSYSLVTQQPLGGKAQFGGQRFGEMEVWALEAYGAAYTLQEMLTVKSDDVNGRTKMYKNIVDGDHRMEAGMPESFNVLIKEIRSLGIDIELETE
RNAP containing His-RpoA (wild type) (Pseudomonas aeruginosa PAO1), sequence (Q9HWC9 whole entry, chain 3 of 4): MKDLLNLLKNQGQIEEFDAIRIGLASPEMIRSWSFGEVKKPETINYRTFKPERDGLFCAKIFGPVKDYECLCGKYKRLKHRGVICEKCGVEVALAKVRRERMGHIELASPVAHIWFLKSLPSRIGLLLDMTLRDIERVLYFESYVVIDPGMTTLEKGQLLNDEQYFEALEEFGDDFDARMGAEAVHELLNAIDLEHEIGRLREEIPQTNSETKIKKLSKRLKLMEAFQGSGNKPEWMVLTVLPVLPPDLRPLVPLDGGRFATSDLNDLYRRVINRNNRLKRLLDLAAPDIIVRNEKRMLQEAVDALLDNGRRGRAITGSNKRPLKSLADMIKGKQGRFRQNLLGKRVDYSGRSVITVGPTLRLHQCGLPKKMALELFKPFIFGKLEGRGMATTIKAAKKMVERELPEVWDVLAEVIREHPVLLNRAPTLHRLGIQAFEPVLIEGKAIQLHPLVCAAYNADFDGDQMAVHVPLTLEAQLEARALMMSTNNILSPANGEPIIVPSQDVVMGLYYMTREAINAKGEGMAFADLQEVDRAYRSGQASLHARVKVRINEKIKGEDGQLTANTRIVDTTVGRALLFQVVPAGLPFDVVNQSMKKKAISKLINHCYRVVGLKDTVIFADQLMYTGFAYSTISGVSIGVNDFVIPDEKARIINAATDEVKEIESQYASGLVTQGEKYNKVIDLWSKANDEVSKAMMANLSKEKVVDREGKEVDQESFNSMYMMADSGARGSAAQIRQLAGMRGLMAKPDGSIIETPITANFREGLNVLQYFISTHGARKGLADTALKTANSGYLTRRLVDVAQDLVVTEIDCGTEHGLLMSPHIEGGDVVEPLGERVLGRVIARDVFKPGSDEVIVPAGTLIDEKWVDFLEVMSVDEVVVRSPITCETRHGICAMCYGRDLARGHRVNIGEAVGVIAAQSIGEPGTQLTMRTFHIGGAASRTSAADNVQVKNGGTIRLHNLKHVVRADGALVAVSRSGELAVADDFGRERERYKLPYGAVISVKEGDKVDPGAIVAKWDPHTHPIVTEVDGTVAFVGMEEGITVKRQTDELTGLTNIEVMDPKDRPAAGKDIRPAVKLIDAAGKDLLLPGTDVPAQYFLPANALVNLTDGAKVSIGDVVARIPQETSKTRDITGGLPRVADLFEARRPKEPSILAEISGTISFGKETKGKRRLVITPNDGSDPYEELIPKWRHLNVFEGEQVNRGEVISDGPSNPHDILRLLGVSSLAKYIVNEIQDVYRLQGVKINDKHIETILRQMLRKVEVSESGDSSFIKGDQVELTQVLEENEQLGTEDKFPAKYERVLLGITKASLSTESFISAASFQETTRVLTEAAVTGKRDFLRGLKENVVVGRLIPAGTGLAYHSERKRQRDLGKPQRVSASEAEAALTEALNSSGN
RNAP containing His-RpoA (wild type) (Pseudomonas aeruginosa PAO1), sequence (Q9HTM1 whole entry, chain 4 of 4): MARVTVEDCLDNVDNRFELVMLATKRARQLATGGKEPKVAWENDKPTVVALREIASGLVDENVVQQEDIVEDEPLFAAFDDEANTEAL

With “AGTCTCTGAGCCCTCCGGCAGCTACCCGCACGAGGCGTCGCAACGGGAAAATCGATCGCGCGCCGCGGGTGTGCGGCTTATTCCATCGAAAGCACTGTCCATAACCATCGACTGTTACAGAAAACGAAAAACCATGTATCACTGTTCGTGATAATCAAAATCTCGTCGTTCGATTAGTTCCCTGCCGGAGCAGCCCGCAGACTTCGCCAATCCCGAAAAACCGACTGGCGGAGTCAAGCATGGTTTTTT (double strand) [PmexE probe (mexEF-oprN promoter)]” the binding was “binds”.
